In patent publication US20100021474:

Target: Kunitz domain inhibitor KD1 derived from hepatocyte growth factor activator inhibitor-1B (HAI-1B) (UniProt O43278)
Sequence (O43278 246-303): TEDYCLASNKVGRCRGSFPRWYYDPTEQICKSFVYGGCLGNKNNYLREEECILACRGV

Chain of soluble form of HEPSIN comprising the entire extracellular domain (human HEPSIN Arg45-Leu417, His-tagged) (chain, as listed by the source): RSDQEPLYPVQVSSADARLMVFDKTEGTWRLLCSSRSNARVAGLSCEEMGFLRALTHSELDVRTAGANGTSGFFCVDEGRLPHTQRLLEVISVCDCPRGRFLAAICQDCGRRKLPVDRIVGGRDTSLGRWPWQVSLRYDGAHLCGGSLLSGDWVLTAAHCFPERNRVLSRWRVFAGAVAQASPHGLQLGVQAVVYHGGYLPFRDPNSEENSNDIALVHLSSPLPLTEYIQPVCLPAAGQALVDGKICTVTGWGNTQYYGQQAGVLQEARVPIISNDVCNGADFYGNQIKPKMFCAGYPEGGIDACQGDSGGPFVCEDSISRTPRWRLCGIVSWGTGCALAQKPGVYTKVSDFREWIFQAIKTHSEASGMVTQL

Substance: soluble form of HEPSIN comprising the entire extracellular domain (human HEPSIN Arg45-Leu417, His-tagged)
- HEPSIN activity in a chromogenic substrate assay with the para-nitroanilide substrate S2366: completely inhibited HEPSIN activity at a concentration of 50 nM
